As usually defined, the EC50 is the midpoint of the concentration-response curve. In general, Kd refers to the constant that tells how readily two partners part at equilibrium.

Experiment [1] concerns the target T1, human IL4Rα/Fc (human, UniProt P24394 26-232, limits assumed).
T1 construct: also called rh IL4Ra/Fc
T1 sequence (looked up): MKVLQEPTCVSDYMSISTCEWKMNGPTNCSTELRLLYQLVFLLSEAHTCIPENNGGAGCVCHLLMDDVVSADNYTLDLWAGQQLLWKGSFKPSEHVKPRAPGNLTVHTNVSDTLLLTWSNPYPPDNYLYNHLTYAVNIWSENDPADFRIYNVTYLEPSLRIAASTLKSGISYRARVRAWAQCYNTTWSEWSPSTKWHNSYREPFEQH
The experiment can be described thus: ELISA, antigen directly coated, IgG4. (In general: An ELISA detects its analyte on a solid surface through an enzyme-linked reagent.)

The target in experiment [2] is T2, human IL12Rβ1 (human, UniProt P42701 24-662).
T2 construct: On stably transfected Ba/F3 cells in FACS; on primary human T cells within PBMC in the functional assay; also called human IL12Rβ1 transfected Baf3 cells; Ba/F3/IL12Rβ1 expressing cells
The experiment can be described thus: FACS on Baf3 cells transfected with human IL12Rβ1, IgG4. As for the experimental part:
(§1) Cells of the respective cell line (BaF3 cells stable transfected with cyno and human IL12Rβ1; HEK EBNA and Jurkat cells stable transfected with cyno IL12Rβ1) were counted and adjusted to 2×10⁷ cells/ml in PBS/3% FCS/0.02% NaN₃ (FAGS buffer). FAGS staining was performed in V-bottom 96-well microtiter plates (NUNC™, Wiesbaden, Germany) and 1×10⁵ cells per well were mixed with a) purified Fab fragments or b) purified IgG4 or c) positive control antibody (mouse anti IL12Rβ1, R&D Systems, Cat#: MAB839), diluted in FACS buffer and incubated at […] for 1 h. Cells were then washed 2× with 200 μl FACS buffer/well and taken up in 100 μl phycoerythrin-conjugated goat anti-human IgG (H+L) secondary antibody (Jackson ImmunoResearch) which has been diluted 1:200 in FACS buffer. After 45 min incubation at 4° C. cells were washed 3× with FAGS buffer, resuspended in 100 μl of FACS buffer and cell surface binding of IL12Rβ1 specific antibodies was measured via FL2 fluorescence intensity of cells in FACSCalibur™ (Becton Dickinson).

The target of experiment [3] is T3, cynomolgus IL12Rβ1 (cynomolgus, UniProt A0A2K5VWV1 24-662).
T3 construct: whole, on cells; also called cyno IL12Rβ1; Cyno IL-12Rβ1
The experiment is described as follows: FACS on Baf3 cells transfected with cyno IL12Rβ1, IgG4. As for the experimental part:
as §1

The target of experiment [4] is T3, cynomolgus IL12Rβ1. The experiment can be described thus: FACS, 1 µg/ml IgG4, BaF3 cells expressing cyno IL12Rβ1. The procedure:
as §1
(In general: Flow cytometry measures light scatter and fluorescence of single cells or particles in a stream.)

In experiment [5] the target is T3, cynomolgus IL12Rβ1. The experiment is described as follows: FACS, 1 µg/ml Fab, Jurkat cells expressing cyno IL12Rβ1. The procedure:
as §1

Experiment [6] has as its target T4, recombinant human IL12Rβ1/Fc fusion protein (human, UniProt P42701 24-545).
T4 construct: Bought from R&D Systems; Partly used biotinylated; also called rh IL12Rβ1
The experiment is described as follows: BioVeris competition; Fab titrated with IL12Rβ1/Fc, competitor rhIL-23 on beads. As for the experimental part: (§2) For the IL12 and IL23 binding inhibition assay, 25 μg recombinant human IL12 and 20 μg IL23 (R&D Systems) were directly coupled (NHS/EDC coupling) to 250 μl carboxylic acid M-270 Dynal magnetic beads (2×109 beads/ml), 50 μl Fab antibodies per well (20 nM stock) in 1:4 dilution steps (Fab concentration: 0.6 pM-10 nM) were incubated for 2 h with 50 μl of 40-100 pM IL12Rβ1/Fc fusion in 96 well plates (Nunc). 25 μl IL12 or IL23 coated beads and 1:500 diluted Streptavidin detection antibody labeled with BV-tag™ according to instructions of supplier (BioVeris Europe) were added to each well and incubated for 1.5 h. Detection was performed by BioVeris M-384 SERIES® Workstation (BioVeris Europe). EC50 determination was performed by evaluation of the resulting data by a 4-parameter logistic fit model (XLfit, IDBS).

For experiment [7], the target named is T4, recombinant human IL12Rβ1/Fc fusion …. The experiment can be described thus: solution equilibrium titration (SET), BioVeris ECL, Fab.
Experiment [8] addresses T3, cynomolgus IL12Rβ1. The experiment can be described thus: FACS, 1 µg/ml Fab, HEK cells expressing cyno IL12Rβ1. The procedure: as §1
For experiment [9], the target named is T4, recombinant human IL12Rβ1/Fc fusion …. The experiment is described as follows: solution equilibrium titration (SET), BioVeris ECL, Fab. This is another data set of the same source.
The target is the same in experiment [10]. The experiment can be described thus: BioVeris competition; Fab titrated with IL12Rβ1/Fc, competitor rhIL-12 on beads. As for the experimental part:
as §2

Read-outs that look alike come from different tables or passages of the source.

B1: MOR05281 IgG4 (antibody, V domains shown)
VH: QVQLKESGPALVKPTQTLTLTCTFSGFSLSTRGVGVSWIRQPPGKALEWLALIYWDEDKYYSTSLKTRLTISKDTSKNQVVLTMTNMDPVDTATYYCARYQSGYYYNNDGWGVDIWGQGTLVTVSS
VL: DIQMTQSPSSLSASVGDRVTITCRASQSISSWLNWYQQKPGKAPKLLIYAASSLQSGVPSRFSGSGSGTDFTLTISSLQPEDFATYYCQQYYAFPHTFGQGTKVEIKR
notes: IgG4
As to B1, the binding result in experiment [1] was “no binding”. For the same molecule, the EC50 is 1200 pM in [2] and 1000 pM in [3]. In [4], the “MFI (mean fluorescent intensity)” value turned out to be 144.

B2: MOR05281 Fab (Fab, V domains shown)
VH: QVQLKESGPALVKPTQTLTLTCTFSGFSLSTRGVGVSWIRQPPGKALEWLALIYWDEDKYYSTSLKTRLTISKDTSKNQVVLTMTNMDPVDTATYYCARYQSGYYYNNDGWGVDIWGQGTLVTVSS
VL: DIQMTQSPSSLSASVGDRVTITCRASQSISSWLNWYQQKPGKAPKLLIYAASSLQSGVPSRFSGSGSGTDFTLTISSLQPEDFATYYCQQYYAFPHTFGQGTKVEIKR
As for B2, the “MFI (mean fluorescent intensity)” value in experiment [5] and in experiment [8] was 2 in each case. Further, the EC50 in [6] was determined as 70 pM; in [10] it was 60 pM. Further, the Kd in experiment [7] and in [9] was 1 pM each time.

B3: MOR05286 Fab (Fab, V domains shown)
VH: QVQLKESGPALVKPTQTLTLTCTFSGFSLSTSGMGVSWIRQPPGKALEWLALIDWTDDKYYSTSLKTRLTISKDTSKNQVVLTMTNMDPVDTATYYCARTVGKGLYRVDNWGQGTLVTVSS
VL: DIELTQPPSVSVAPGQTARISCSGDNLGSKFAYWYQQKPGQAPVLVIYDDSKRPSGIPERFSGSNSGNTATLTISGTQAEDEADYYCQSWDSSSGNDVFGGGTKLTVLG
notes: also called MOR5286
In the case of B3, the “MFI (mean fluorescent intensity)” value in [5] was found to be 249; in experiment [8], 368. The EC50 in experiment [6] was found to be 170 pM; in experiment [10] it was 90 pM. Further, the dissociation constant (Kd) in experiment [7] and in experiment [9] was 59 pM in each case.

B4: MOR05286 IgG4 (antibody, V domains shown)
VH: QVQLKESGPALVKPTQTLTLTCTFSGFSLSTSGMGVSWIRQPPGKALEWLALIDWTDDKYYSTSLKTRLTISKDTSKNQVVLTMTNMDPVDTATYYCARTVGKGLYRVDNWGQGTLVTVSS
VL: DIELTQPPSVSVAPGQTARISCSGDNLGSKFAYWYQQKPGQAPVLVIYDDSKRPSGIPERFSGSNSGNTATLTISGTQAEDEADYYCQSWDSSSGNDVFGGGTKLTVLG
notes: IgG4; also called MOR5286
On to B4, for which the binding result in [1] was “no binding”. In addition, the concentration giving a half-maximal response (EC50) in experiment [2] is 2400 pM; in [3] it was 4800 pM. The “MFI (mean fluorescent intensity)” value in experiment [4] was 271.

B5: MOR05271 IgG4 (antibody, V domains shown)
VH: QVQLKESGPALVKPTQTLTLTCTFSGFSLSTSTMGVSWIRQPPGKALEWLAWIYWDDDKDYSTSLKSRLTISKDTSKNQVVLTMTNMDPVDTATYYCARANPDLGYFDYWGQGTLVTVSS
VL: DIALTQPASVSGSPGQSITISCTGTSSDLGESNYVSWYQQHPGKAPKVMIYDVNKRPSGVSNRFSGSKSGNTASLTISGLQAEDEADYYCGSYDEEDNVFGGGTKLTVLG
notes: IgG4
With B5, the binding result in [1] was “no binding”. The EC50 in experiment [2] worked out at 143 pM; in experiment [3] it was 73 pM. Also, in [4], the “MFI (mean fluorescent intensity)” value turned out to be 134.

B6: MOR05271 Fab (Fab, V domains shown)
VH: QVQLKESGPALVKPTQTLTLTCTFSGFSLSTSTMGVSWIRQPPGKALEWLAWIYWDDDKDYSTSLKSRLTISKDTSKNQVVLTMTNMDPVDTATYYCARANPDLGYFDYWGQGTLVTVSS
VL: DIALTQPASVSGSPGQSITISCTGTSSDLGESNYVSWYQQHPGKAPKVMIYDVNKRPSGVSNRFSGSKSGNTASLTISGLQAEDEADYYCGSYDEEDNVFGGGTKLTVLG
As to B6, the entries for the “MFI (mean fluorescent intensity)” value in experiment [5] and in [8] were 3 and 2, respectively. The values for the EC50 in [6] and in [10] were 25 pM and 10 pM, respectively. The Kd in [7] and in experiment [9] was 21 pM throughout.

B7: MOR05278 IgG4 (antibody, V domains shown)
VH: QVQLVESGGGLVQPGGSLRLSCAASGFTFSSYGMSWVRQAPGKGLEWVSYIEPKLFWYATFYAASVKGRFTISRDNSKNTLYLQMNSLRAEDTAVYYCARNDFMEPAYFALWGQGTLVTVSS
VL: DIELTQPPSVSVAPGQTARISCSGDNLGSYYAYWYQQKPGQAPVGVIYDDSERPSGIPERFSGSNSGNTATLTISGTQAEDEADYYCSSYTYSKNNVFGGGTKLTVLG
notes: IgG4
In the case of B7, in experiment [1], the binding result is “no binding”. Moreover, the EC50 in experiment [2] is 900 pM; in [3], 931 pM. In addition, the “MFI (mean fluorescent intensity)” value in experiment [4] amounted to 350.

B8: MOR05278 Fab (Fab, V domains shown)
VH: QVQLVESGGGLVQPGGSLRLSCAASGFTFSSYGMSWVRQAPGKGLEWVSYIEPKLFWYATFYAASVKGRFTISRDNSKNTLYLQMNSLRAEDTAVYYCARNDFMEPAYFALWGQGTLVTVSS
VL: DIELTQPPSVSVAPGQTARISCSGDNLGSYYAYWYQQKPGQAPVGVIYDDSERPSGIPERFSGSNSGNTATLTISGTQAEDEADYYCSSYTYSKNNVFGGGTKLTVLG
With B8, the “MFI (mean fluorescent intensity)” value in experiment [5] was 4; in [8], 3. Moreover, the EC50 in [6] was 240 pM; in experiment [10], 80 pM. Moreover, the Kd in experiment [7] and in [9] was 31 pM in each case.

These data come from patent US20120034231A1 (Novartis, published 2012).
